# From patent publication US20240376188A1 (UNIVERSITY OF NORTH CAROLINA AT CHAPEL HILL, published 2024)
# Ends that are not written are not given here.
# T1: acetylated peptide at residue K280 (276QIIN-K-Ac-KLDLSNVQSC) (human)
# T1 construct: Coated at 1 ug/ml on 96-well plates; also called acetylated tau peptide
# T1 peptide: QIINK(Ac)KLDLSNVQSC
# Biological target: T1, acetylated peptide at residue K280 …
# Experiment: peptide ELISA, peptide coated at 1 ug/ml, hybridoma supernatant diluted 1:10 to 1:2,500
# Protocol: FIG. 13 includes an ELISA assay showing two K280 clones, 19B6 and 17G8, preferentially detect acetylated vs, non-acetylated tau peptides. Standard peptide ELISAs were performed with 1 μg/ml acetylated peptides at residue K280 (276QIIN-K-Ac-[…] (SEQ ID NO:17)) vs, non-acetylated peptides (276[…] (SEQ ID NO: 16)) and used to coat 96-well plates followed by washing with coating buffer (Phosphate Buffered Saline, pH 7.4) and incubated with serial dilutions of hybridoma supernatants (diluted from 1:10 to 1:2,500). Monoclonal antibodies were […] Horseradish peroxidase (HRP)-labeled secondary antibodies and colorimetric ELISAs were performed using a BMG/BioTek® multiplate reader at a standard absorbance setting of 450 nm with auto-mixing and blanking.
row,binding result,Binder
1,binds,"19B6 (antibody, V domains shown, Used as hybridoma supernatant in the peptide ELISA; also called Ac-K280 clone 19B6) VH: EVQLQQSGAEFVRPGASVKLSCTVSGLNIEDDYIQWLKQRPEQGLEWIGWIDPENGDPKYASKFQGKATLTADTSSKIAYLHLSSLTSEDTAVYYCATRGLWGQGTTLTVSS VL: QIVLTQSPAIMSASLGERVTMTCTASSSVSSSYFHWYQQKPGSSPKLWIYSTSNLASGVPVRFSGSGSGTSYSLTISSMEAEDAATYYCHQYHRSPLTFGAGTKLELK"
2,binds,"17G8 (antibody, V domains shown, Used as hybridoma supernatant in the peptide ELISA; also called Ac-K280 clone 17G8) VH: EVQLQQSGAEFVRPGASVKLSCTVSGLNIEDDYIQWLKQRPEQGLEWIGWIDPENGDPKYASKFQGKATLTADTSSKIAYLHLSSLTSEDTAVYYCATRGLWGQGTTLTVSS VL: QIVLTQSPAIMSASLGERVTMTCTASSSVSSSYFHWYQQKPGSSPKLWIYSTSNLASGVPVRFSGSGSGTSYSLTISSMEAEDAATYYCHQYHRSPLTFGAGTKLELK"
